# Assay results: the RNAGym collection of RNA variant scans (doi:10.1021/acssynbio.7b00057)
# B1: Pistol ribozyme (parent)
# chain: GGGUCGUUGUUCCAUAAUCGCGUGGAUAUGGCACGCAAGUUUCUACCGGGCACCGUAAAUGUCCGACUGGAGCCGUUCGGGCGGCUAUAAACAGACCUCAGGCCCGAAGCGUGGCGGCACCUGCCGCCGGUGGUAAAAAAGAUCGGAAGAGCACACGUCU
# Variants of: B1
# Assay: aptazyme ON/OFF ratio, guanine; higher = stronger switching; co-transcriptional cleavage with and without guanine
row,Variant,aptazyme ON/OFF ratio
1,U7G G9A U10C U11A C12G C13A,1.11
2,U7G G9A U10G U11C C12G C13A,1.08
3,U7G G9A U10G U11C C12G C13U,1.1
4,U7G G9A U10G U11C C12G C13G,1.08
5,U7G G9A U10A U11A C12A,1.1
6,U7G G9A U10A U11A C12U,1.2
7,U7G G9A U10A U11A C12G,1.2
8,U7G G9A U10A C12A,1.2
9,U7G G9A U10A C12G,1.18
10,U7G G9A U10A C12U,1.31
11,U7G G9A U11A C12A C13A,1.18
12,U7G G9A U11A C12A C13G,1.09
13,U7G G9A U11A C12A C13U,1.15
14,U7G G9A U10A U11A C12A C13G,1.13
15,U7G G9A U10A U11A C12A C13U,1.11
16,U7G G9A U10A U11A C12A C13A,1.07
17,U7G G9C C13U,1.45
18,U7G G9C C13A,1.29
19,U7G G9C C13G,1.14
20,U7G G9A U10C U11A C12U C13A,1.11
21,U7G G9A U10C U11A C12U C13G,1.05

row,Variant,aptazyme ON/OFF ratio
1,U7G G9A U10C U11A C12U C13U,1.04
2,U7G G9A U10A U11G C12G C13U,1.22
3,U7G G9A U10A U11G C12G C13G,1.14
4,U7G G9A U10A U11G C12G C13A,1.09
5,U7G G9A U10A C12G C13G,1.12
6,U7G G9A U10A C12G C13U,1.25
7,U7G G9A U10A C12G C13A,1.09
8,U7G G9A U10G U11G C12U C13U,1.1
9,U7G G9A U10G U11G C12U C13G,1.12
10,U7G G9A U10G U11G C12U C13A,1.09
11,U7G G9A U11G C13U,1.16
12,U7G G9A U11G C13G,1.1
13,U7G G9A U11G C13A,1.11
14,U7G G9A U10G U11A C13U,1.07
15,U7G G9A U10G U11A C13A,1.05
16,U7G G9A U10G U11A C13G,1.06
17,U7G G9A U10G U11G C12G C13U,1.16
18,U7G G9A U10G U11G C12G C13G,1.16
19,U7G G9A U10G U11G C12G C13A,1.11
20,U7G C13U,1.09
21,U7G C13G,1.05

row,Variant,aptazyme ON/OFF ratio
1,U7G C13A,1.08
2,U7G G9A U10G U11C C12G,1.1
3,U7G G9A U10G U11C C12A,1.12
4,U7G G9A U10G U11C C12U,1.11
5,U7G G9A U11G C12G C13A,1.07
6,U7G G9A U11G C12G C13U,1.16
7,U7G G9A U11G C12G C13G,1.07
8,U7G G9C U10A U11A C12U C13U,1.29
9,U7G G9C U10A U11A C12U C13A,1.29
10,U7G G9C U10A U11A C12U C13G,1.25
11,U7G G9A U10C U11C C12G C13U,1.03
12,U7G G9A U10C U11C C12G C13A,1.1
13,U7G G9A U10C U11C C12G C13G,1.05
14,U7G G9A U10C C12A C13A,1.14
15,U7G G9A U10C C12A C13U,1.15
16,U7G G9A U10C C12A C13G,1.13
17,U7G G9A U10C U11C C12U,1.07
18,U7G G9A U10C U11C C12G,1.17
19,U7G G9A U10C U11C C12A,1.26
20,U7G G9A U10C U11G C12A C13G,1.1
21,U7G G9A U10C U11G C12A C13A,1.07

row,Variant,aptazyme ON/OFF ratio
1,U7G G9A U10C U11G C12A C13U,1.11
2,U7G G9A U10A U11A C12U C13G,1.19
3,U7G G9A U10A U11A C12U C13U,1.17
4,U7G G9A U10A U11A C12U C13A,1.12
5,U7G G9A U10A U11C C12U C13G,1.15
6,U7G G9A U10A U11C C12U C13U,1.2
7,U7G G9A U10A U11C C12U C13A,1.15
8,U7G G9A U10A U11A C13A,1.14
9,U7G G9A U10A U11A C13G,1.09
10,U7G G9A U10A U11A C13U,1.2
11,U7G G9A U10A U11C C13U,1.06
12,U7G G9A U10A U11C C13A,1.09
13,U7G G9A U10A U11C C13G,1.08
14,U7G G9A U10G U11G C12U,1.16
15,U7G G9A U10G U11G C12G,1.09
16,U7G G9A U10G U11G C12A,1.1
17,U7G G9A U10G U11C C12U C13U,1.09
18,U7G G9A U10G U11C C12U C13G,1.08
19,U7G G9A U10G U11C C12U C13A,1.08
20,U7G G9A U10A C12A C13G,1.14
